The target in the assay is T1, hiR2-FL-WT-FLAG (human iRhom2 full length wild type C-terminally tagged with the triple-FLAG epitope) (human, UniProt Q6PJF5 1-856).
T1 construct: also called expressed by MEF-DKO-hiR2-FL-WT-FLAG cells
T1 sequence: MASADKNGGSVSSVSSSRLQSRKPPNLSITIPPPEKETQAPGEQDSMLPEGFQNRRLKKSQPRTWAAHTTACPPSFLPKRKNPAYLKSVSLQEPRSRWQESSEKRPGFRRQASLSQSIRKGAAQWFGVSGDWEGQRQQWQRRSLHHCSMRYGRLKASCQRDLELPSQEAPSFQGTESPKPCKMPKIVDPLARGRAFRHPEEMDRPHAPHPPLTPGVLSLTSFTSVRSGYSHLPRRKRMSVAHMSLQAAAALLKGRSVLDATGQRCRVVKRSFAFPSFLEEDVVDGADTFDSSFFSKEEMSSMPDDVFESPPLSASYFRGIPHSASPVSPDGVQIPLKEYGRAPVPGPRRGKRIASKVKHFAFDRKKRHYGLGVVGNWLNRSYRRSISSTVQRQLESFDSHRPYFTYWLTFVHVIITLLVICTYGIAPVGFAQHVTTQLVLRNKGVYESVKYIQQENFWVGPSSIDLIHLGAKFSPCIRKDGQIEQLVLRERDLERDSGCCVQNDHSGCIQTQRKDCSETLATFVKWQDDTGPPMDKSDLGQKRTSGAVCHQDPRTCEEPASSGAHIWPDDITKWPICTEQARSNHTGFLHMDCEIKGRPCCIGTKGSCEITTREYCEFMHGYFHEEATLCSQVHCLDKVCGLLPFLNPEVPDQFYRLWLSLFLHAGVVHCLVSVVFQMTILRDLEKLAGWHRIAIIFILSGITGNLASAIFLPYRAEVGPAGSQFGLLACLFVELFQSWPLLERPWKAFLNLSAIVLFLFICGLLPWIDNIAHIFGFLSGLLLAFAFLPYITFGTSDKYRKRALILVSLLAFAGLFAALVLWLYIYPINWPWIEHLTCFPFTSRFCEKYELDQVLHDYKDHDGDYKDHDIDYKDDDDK
Description: FACS, MEF-DKO-hiR2-FL-WT-FLAG cells, 3 µg/ml. The method, then: In brief, immortalized MEF-DKO-EV control cells, MEF-DKO-hiR2-FL-WT-FLAG cells and MEF-DKO-miR2-FL-WT-FLAG cells were harvested with 10 mM EDTA in PBS, washed and resuspended in FACS buffer (PBS, 3% FBS, 0.05% sodium azide), and seeded in Nunc U-bottom 96-well plates (Thermo Fisher Scientific, USA) at approximately 3×10⁵ cells per well. To pellet cells and remove supernatants, the plates were centrifuged at 1,500 rpm and 4° C. for 3 minutes. For primary staining, cells were resuspended in 100 μl per well of either FACS buffer alone (controls), mouse monoclonal anti-FLAG IgG (Sigma-Aldrich, USA) at 3 μg/ml FACS buffer or the antibodies of the present disclosure also at 3 μg/ml FACS buffer and incubated on ice for 1 hour. Afterwards, plates were centrifuged at 1,500 rpm and 4° C. for 3 minutes and washed twice with 200 μl per well of FACS buffer. For secondary staining, cells were spun down and resuspended in 100 μl per well of PE-conjugated goat anti-mouse IgG F(ab′)2 detection fragment (Dianova, Germany) diluted 1:100 in FACS buffer. Protected from light, the cell suspensions were incubated on ice for 1 hour. Plates were then centrifuged at 1,500 rpm and 4° C. for 3 minutes and washed three times with 200 μl per well of FACS buffer. Finally, cells were resuspended in 150 μl per well of FACS buffer and analyzed using a BD Accuri™ C6 Plus flow cytometer (Becton Dickinson, Germany).
Background: In flow cytometry, cells or beads pass a laser one at a time.

B1: antibody 47 (antibody, V domains shown)
VH: QVQLQQSGAELVRPGTSVKVSCKASGYAFTNYLIEWVKQRPGQGLEWIGVINPGSGFTNYNEKFKGKAILNADKSSSTAYMQLISLTSEDSAVYFCARDLKRAMDHWGQGTSVTVSS
VL: DIQMTQSPASQSASLGESVTITCLASQTIGTWLAWYQQKPGKSPQLLIHAATSLADGVPSRFSGSGSGTKFSFKISSLQAEDFVSYYCQQIYSSPYTFGGGTKLEIK
notes: Mouse IgG, kappa light chain; also called clone #47
As to B1, the binding result is reported as “binds”.

B2: antibody 51 (antibody, V domains shown)
VH: QVQLQQSGAELVKPGASVKISCKASGYTFSNYWMNWVKQRPGKGLEWIGQIYPGDGDTKYNGKFKNKATLTADKSSSTAYMQFSSLTSEDSAVYFCARGDLVFVYWGLGTLVTVSA
VL: DVQITQSPSYLAVSPGETITINCRASKNIRKYLAWYQEKPGKTNKLLIYSGSTSQSGVPSRFSGSGSGTDFTLTISSLEPEDFAMYYCQQHNEYPYTFGGGTKLEIK
notes: Mouse IgG, kappa light chain; also called clone #51
For B2, the binding result is listed as “binds”.
